Assay results published in article PMC8897147.

Biological target: SV1, splice variant of GHRHR, -Rluc8
Experiment: FRET or BRET

Sequence of SV1, splice variant of GHRHR, -Rluc8 (Q02643 23-423, change not shown): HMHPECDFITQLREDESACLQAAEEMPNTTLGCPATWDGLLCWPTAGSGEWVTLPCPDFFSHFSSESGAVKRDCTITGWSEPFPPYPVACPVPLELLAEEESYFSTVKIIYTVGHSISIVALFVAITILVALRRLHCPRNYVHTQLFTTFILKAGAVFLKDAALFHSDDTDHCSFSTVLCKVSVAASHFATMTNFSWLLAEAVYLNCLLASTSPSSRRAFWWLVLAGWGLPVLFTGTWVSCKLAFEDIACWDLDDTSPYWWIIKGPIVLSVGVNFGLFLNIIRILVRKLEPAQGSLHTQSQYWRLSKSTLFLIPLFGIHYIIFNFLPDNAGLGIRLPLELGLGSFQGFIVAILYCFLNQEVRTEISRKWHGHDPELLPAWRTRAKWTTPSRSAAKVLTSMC
Sequence of RAMP2-Ypet (receptor activity-modulating protein 2) (O60895 43-175): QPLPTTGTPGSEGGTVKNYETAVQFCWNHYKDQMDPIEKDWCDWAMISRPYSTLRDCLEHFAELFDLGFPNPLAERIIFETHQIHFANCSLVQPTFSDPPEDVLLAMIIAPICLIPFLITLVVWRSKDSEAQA

BRET50 (Kd) (intensity ratio of RAMP:receptor) | Substance
4.4 | RAMP1-Ypet (receptor activity-modulating protein 1) (from UniProt O60894 27-148) (natural protein)
2.36 | RAMP2-Ypet (receptor activity-modulating protein 2) (from UniProt O60895 43-175) (natural protein)
